Reference: US20210206882A1 (AB STUDIO, published 2021)
Numbering of substitutions follows the chain as printed. Numbers in names are those of the source.

Experiments:
CD55 = target: T1, CD55 (UniProt P08174 35-353, limits assumed); experiment: flow cytometry cell binding on MDA231 cells (Cy3 goat anti-human IgG); antibody concentration not given
T1 construct: In the internalization assay CD55 stood on MDA231 and SIHA cells
T1 sequence (looked up): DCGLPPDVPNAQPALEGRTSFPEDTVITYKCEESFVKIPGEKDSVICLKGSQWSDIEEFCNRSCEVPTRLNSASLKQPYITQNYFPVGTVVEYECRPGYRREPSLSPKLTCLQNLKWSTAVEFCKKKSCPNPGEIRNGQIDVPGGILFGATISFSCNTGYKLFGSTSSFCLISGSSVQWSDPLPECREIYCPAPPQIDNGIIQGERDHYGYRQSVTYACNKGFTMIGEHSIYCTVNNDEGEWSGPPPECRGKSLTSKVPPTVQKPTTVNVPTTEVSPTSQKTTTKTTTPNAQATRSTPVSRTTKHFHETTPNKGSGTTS

[1] = target: T2, CD20 (on CD20 positive Raji cells) (UniProt P11836 1-297, limits assumed); experiment: flow cytometry cell binding on CD20+ Raji cells, 3-fold titration 10 to 0.04 µg/ml and 0
T2 construct: whole, on cells; Raji is a human B cell line
T2 sequence (looked up): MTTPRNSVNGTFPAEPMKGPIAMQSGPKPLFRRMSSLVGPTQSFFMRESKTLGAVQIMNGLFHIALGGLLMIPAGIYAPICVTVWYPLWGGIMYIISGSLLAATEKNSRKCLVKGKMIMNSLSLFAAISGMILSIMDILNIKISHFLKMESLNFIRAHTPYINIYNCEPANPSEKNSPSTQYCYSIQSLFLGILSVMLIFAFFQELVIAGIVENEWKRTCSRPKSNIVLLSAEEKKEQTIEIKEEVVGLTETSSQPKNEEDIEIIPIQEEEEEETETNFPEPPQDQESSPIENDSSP

PD-L1 = PD-L1 (UniProt Q9NZQ7 19-290, limits assumed); experiment: flow cytometry cell binding on MDA231 cells (Cy3 goat anti-human IgG); antibody concentration not given
PD-L1, sequence (Q9NZQ7 19-290 limits assumed): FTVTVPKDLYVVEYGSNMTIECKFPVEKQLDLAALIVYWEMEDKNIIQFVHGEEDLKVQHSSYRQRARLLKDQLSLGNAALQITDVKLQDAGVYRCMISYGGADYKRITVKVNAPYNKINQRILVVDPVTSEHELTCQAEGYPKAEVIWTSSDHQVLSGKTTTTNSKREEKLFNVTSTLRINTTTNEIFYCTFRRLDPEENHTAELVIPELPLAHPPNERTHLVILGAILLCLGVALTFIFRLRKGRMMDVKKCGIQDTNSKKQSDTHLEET

B1: parental anti-CD55 antibody (CD55 wt) (antibody, V domains shown)
VH: QVKLQESGGGLVQPGGSLKLSCAASGFTFSGYGMSWIRQTPDKRLEWVATINSGGSYTYYSDSVKGRFTISRDNVKNTLYLQMSSLKSEDTAMYYCARRNGTLYYYLMDYWGRGTLVTVSS
VL: QSVLTQPPSASGSPGQSVTISCTGTSSDVGGYNYVSWYQQHPGKAPKFMIYDVSKRPSGVSNRFSGSKSGNTASLTISGVQAEDEADYYCSSYTSASTVIFGGGTKLTVL
notes: The variable domains come from a published CD55 scFv; also called CD55 parental Ab; anti-CD55 parental monoclonal antibody
B1: binds (CD55).

B2: parental anti-CD20 IgG (Rituximab) (antibody, V domains shown)
VH: QVQLQQPGAELVKPGASVKMSCKASGYTFTSYNMHWVKQTPGRGLEWIGAIYPGNGDTSYNQKFKGKATLTADKSSSTAYMQLSSLTSEDSAVYYCARSTYYGGDWYFNVWGAGTTVTVSA
VL: QIVLSQSPAILSASPGEKVTMTCRASSSVSYIHWFQQKPGSSPKPWIYATSNLASGVPVRFSGSGSGTSYSLTISRVEAEDAATYYCQQWTSNPPTFGGGTKLEIKR
notes: tested as IgG; also called Parental CD20; CD20 parental Ab
For B2, the “EC50 (read off the curve)” value [1] was ~0.2 µg/mL.

B3: parental anti-CD3 IgG (MAb 12F6) (antibody, V domains shown)
VH: QVQLQQSGAELARPGASVKMSCKASGYTFTSYTMHWVKQRPGQGLEWIGYINPSSGYTKYNQKFKDKATLTADKSSSTAYMQLSSLTSEDSAVYYCARWQDYDVYFDYWGQGTTLTVSS
VL: B2 VL with I32M, F35Y, V59A, T91S, I105T
notes: tested as IgG; also called Parental CD3; CD3 parental Ab
B3: no binding (tested: 10 µg/ml) [1].

B4: CD20 homodimer IgG containing the designed VH sequence (SEQ ID NO: 1) and the common VL sequence (SEQ ID NO: 3) (antibody, V domains shown)
VH: B2 VH with T87R
VL: B2 VL
notes: Homodimer IgG with two VHa and two common VL; VHa is the Rituximab VH with T83R (Kabat); also called redesigned Rituximab; antibody A
With B4 the “EC50 (read off the curve)” value [1] was ~0.4 µg/mL.

B5: CD3 homodimer IgG containing the designed VH sequence (SEQ ID NO: 2) and the common VL sequence (SEQ ID NO: 3) (antibody, V domains shown)
VH: B3 VH with Q1E, Q6E, Q43E, Q82E, Q111E
VL: B2 VL
notes: Homodimer IgG with two VHb and two common VL; also called redesigned 12F6; antibody B
B5: no binding (tested: 10 µg/ml) [1].

B6: Anti-PD-L1 homodimer IgG (PD-L1 v1) containing the designed VH sequence (SEQ ID NO: 4) and the common VL sequence (SEQ ID NO: 6) (antibody, V domains shown)
VH: EVQLLESGGGLVEPGGSLRLSCAASGFTFSSYIMMWVRQAPGKGLEWVSSIYPSGGITFYADTVKGRFTISRDNSKNTLYLQMNSLRAEDTAVYYCARIKLGTVTTVDYWGEGTLVTVSS
VL: QSALTQPASVSGSPGQSITISCTGTSSDVGGYNYVSWYQQHPGKAPKLMIYDVSKRPSGVSNRFSGSKSGNTASLTISGLQAEDEADYYCSSYTSASTRIFGGGTKVTVLR
notes: Homodimer IgG; The heavy chain constant region of the homodimer is not specified; also called PD-L1 mono-dimer IgG; PDL1 homodimer version 1
B6: binds (PD-L1).

B7: Anti-CD55 homodimer IgG (CD55 v1) containing the designed VH sequence (SEQ ID NO: 5) and the common VL sequence (SEQ ID NO: 6) (antibody, V domains shown)
VH: B1 VH with Q13K, D42G
VL: B6 VL
notes: Homodimer IgG; also called CD55 mono-dimer IgG; CD55 homodimer version 1
B7: binds (CD55).
